Measurements taken from patent US20120058906A1 (published 2012).
Values belong to the binder of their own block, whether it stands above or below them.

Assays:
[1] = molecular target: T1, rHuman P-Cadherin/Fc Chimera, CF (R&D Systems Cat#861-PC) (human, UniProt P22223 108-654); experiment: ECL (MSD multi-spot), antigen on plate, Fab 500 nM
T1 construct: Bought Fc chimera; also called CDH3; not shown: Fc of the bought chimera

[2] = molecular target: T2, rHuman IGF-1 sR (insulin-like growth factor-1 soluble receptor), CF (R&D Systems Cat#391-GR) (human, UniProt P08069 31-932); experiment: ECL (MSD multi-spot), antigen on plate, Fab 500 nM
T2 construct: Bought soluble receptor; also called IGF-R1

[3] = molecular target: T3, Recombinant Human DLL4 (R&D Systems Cat#1506-D4/CF) (human, UniProt Q9NR61 27-524); experiment: ECL (MSD multi-spot), antigen on plate, Fab 500 nM
T3 construct: Bought recombinant protein; also called delta-like protein 4

[4] = molecular target: T4, rHuman CD44/Fc Chimera, CF (R&D Systems Cat#3660-CD) (human, UniProt P16070 21-220); experiment: ECL (MSD multi-spot), antigen on plate, Fab 500 nM
T4 construct: Bought Fc chimera; not shown: Fc of the bought chimera

[5] = molecular target: T5, rHuman Notch-1/Fc Chimera, CF (R&D Systems Cat#3647-TK) (human, UniProt P46531 19-526); experiment: ECL (MSD multi-spot), antigen on plate, Fab 500 nM
T5 construct: Bought Fc chimera; not shown: Fc of the bought chimera

[6] = molecular target: T6, rHuman ErbB2/Fc Chimera, CF (R&D Systems Cat#1129-ER) (human, UniProt P04626 23-652); experiment: ECL (MSD multi-spot), antigen on plate, Fab 500 nM
T6 construct: Bought Fc chimera; also called HER2/neu; not shown: Fc of the bought chimera

[7] = molecular target: T7, rHuman HGF R/c-MET/Fc Chimera, CF (R&D Systems Cat#358-MT/CF) (human, UniProt P08581 25-932); experiment: ECL (MSD multi-spot), antigen on plate, Fab 500 nM
T7 construct: Bought Fc chimera; also called HGF R/Fc; not shown: Fc of the bought chimera

[8] = molecular target: T8, rHuman EGF R/Fc Chimera, CF (R&D Systems Cat#344-ER) (human, UniProt P00533 25-645); experiment: ECL (MSD multi-spot), antigen on plate, Fab 500 nM
T8 construct: Bought Fc chimera; also called ErbB-1; not shown: Fc of the bought chimera

[9] = molecular target: T9, rHuman Erythropoietin R/Fc Chimera, CF (R&D Systems Cat#963-ER) (human, UniProt P19235 25-250); experiment: ECL (MSD multi-spot), antigen on plate, Fab 500 nM
T9 construct: Bought Fc chimera; also called EPO R/Fc; Epo R; not shown: Fc of the bought chimera
T9 sequence: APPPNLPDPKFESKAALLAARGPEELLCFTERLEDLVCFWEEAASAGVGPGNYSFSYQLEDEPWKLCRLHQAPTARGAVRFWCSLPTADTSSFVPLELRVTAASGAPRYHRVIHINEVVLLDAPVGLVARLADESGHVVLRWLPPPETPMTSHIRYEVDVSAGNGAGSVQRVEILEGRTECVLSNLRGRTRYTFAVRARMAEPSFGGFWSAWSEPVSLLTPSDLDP

[10] = molecular target: T1, rHuman P-Cadherin/Fc Chimera, CF (R&D …); experiment: ECL (MSD multi-spot), antigen on plate, Fab 0.4 nM;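 also: blank spot per well as comparator with Hit at signal to blank ratio of 4 or more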
[11] = molecular target: T2, rHuman IGF-1 sR (insulin-like growth …); experiment: ECL (MSD multi-spot), antigen on plate, Fab 0.4 nM;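 also: blank spot per well as comparator with Hit at signal to blank ratio of 4 or more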
[12] = molecular target: T3, Recombinant Human DLL4 (R&D Systems …); experiment: ECL (MSD multi-spot), antigen on plate, Fab 0.4 nM;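 also: blank spot per well as comparator with Hit at signal to blank ratio of 4 or more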
[13] = molecular target: T6, rHuman ErbB2/Fc Chimera, CF (R&D …); experiment: ECL (MSD multi-spot), antigen on plate, Fab 0.4 nM;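 also: blank spot per well as comparator with Hit at signal to blank ratio of 4 or more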
[14] = molecular target: T7, rHuman HGF R/c-MET/Fc Chimera, CF (R&D …); experiment: ECL (MSD multi-spot), antigen on plate, Fab 0.4 nM;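 also: blank spot per well as comparator with Hit at signal to blank ratio of 4 or more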
[15] = molecular target: T8, rHuman EGF R/Fc Chimera, CF (R&D …); experiment: ECL (MSD multi-spot), antigen on plate, Fab 0.4 nM;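 also: blank spot per well as comparator with Hit at signal to blank ratio of 4 or more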
[16] = molecular target: T9, rHuman Erythropoietin R/Fc Chimera, CF …; experiment: ECL (MSD multi-spot), antigen on plate, Fab 0.4 nM
[17] = molecular target: T1, rHuman P-Cadherin/Fc Chimera, CF (R&D …); experiment: ECL (MSD multi-spot), antigen on plate, Fab 2 nM;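 also: blank spot per well as comparator with Hit at signal to blank ratio of 4 or more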
[18] = molecular target: T4, rHuman CD44/Fc Chimera, CF (R&D Systems …); experiment: ECL (MSD multi-spot), antigen on plate, Fab 2 nM;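 also: blank spot per well as comparator with Hit at signal to blank ratio of 4 or more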
[19] = molecular target: T5, rHuman Notch-1/Fc Chimera, CF (R&D …); experiment: ECL (MSD multi-spot), antigen on plate, Fab 2 nM;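 also: blank spot per well as comparator with Hit at signal to blank ratio of 4 or more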
[20] = molecular target: T8, rHuman EGF R/Fc Chimera, CF (R&D …); experiment: ECL (MSD multi-spot), antigen on plate, Fab 2 nM;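 also: blank spot per well as comparator with Hit at signal to blank ratio of 4 or more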
[21] = molecular target: T9, rHuman Erythropoietin R/Fc Chimera, CF …; experiment: ECL (MSD multi-spot), antigen on plate, Fab 2 nM;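 also: blank spot per well as comparator with Hit at signal to blank ratio of 4 or more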

ECL signal [1]: 1200 ECL signal
ECL signal [2]: 747 ECL signal
ECL signal [3]: 106000 ECL signal
ECL signal [4]: 604 ECL signal
ECL signal [5]: 689 ECL signal
ECL signal [6]: 596 ECL signal
ECL signal [7]: 841 ECL signal
ECL signal [8]: 758 ECL signal
ECL signal [9]: 1270 ECL signal
B1: Fab VH1-46_IGHD6-6*01_IGHJ1*01_S102A_S103P_S104Y_H111Y & L6_IGKJ1*01 (Fab, V domains shown)
VH: QVQLVQSGAEVKKPGASVKVSCKASGYTFTSYYMHWVRQAPGQGLEWMGIINPSGGSTSYAQKFQGRVTMTRDTSTSTVYMELSSLRSEDTAVYYCAREEYAPYSAEYFQYWGQGTLVTVSS
VL: not shown
notes: Fab made in E. coli; The heavy chain also carries CH1 with Flag and His tags from Plasmid A, and the light chain carries kappa CL from Plasmid C

ECL signal [10]: 111 ECL signal
ECL signal [11]: 141 ECL signal
ECL signal [12]: 1040 ECL signal
ECL signal [13]: 203 ECL signal
ECL signal [14]: 120 ECL signal
ECL signal [15]: 173 ECL signal
ECL signal [16]: 224 ECL signal
ECL signal [17]: 395 ECL signal
ECL signal [18]: 209 ECL signal
ECL signal [19]: 274 ECL signal
ECL signal [20]: 171 ECL signal
ECL signal [21]: 294 ECL signal
B2: Fab VH1-46_IGHD6-6*01_IGHJ1*01_S102A_S103P_S104F & L6_IGKJ1*01_S30N (Fab, V domains shown)
VH: QVQLVQSGAEVKKPGASVKVSCKASGYTFTSYYMHWVRQAPGQGLEWMGIINPSGGSTSYAQKFQGRVTMTRDTSTSTVYMELSSLRSEDTAVYYCAREEYAPFSAEYFQHWGQGTLVTVSS
VL: EIVLTQSPATLSLSPGERATLSCRASQSVNSYLAWYQQKPGQAPRLLIYDASNRATGIPARFSGSGSGTDFTLTISSLEPEDFAVYYCQQRSNWPPWTFGQGTKVEIKR
notes: Fab
